According to US20100069462A1 (JICHI MEDICAL UNIVERSITY, published 2010):

Target: T1, PHB2-FLAG (human PHB2 protein with a FLAG tag fused to the carboxyl terminus) (human, UniProt O35129 1-299 (mouse entry))
T1 construct: Expressed in HeLa cells; immunoprecipitated with an anti-FLAG antibody from purified mitochondrial fractions; also called prohibitin 2; not shown: FLAG tag at the C-terminus
Test: immunoprecipitation and mass spectrometry on purified HeLa mitochondrial fractions (summary of Example 3)
Procedure: First, immunoprecipitation (IP) analysis and mass spectrometry (MASS analysis) were conducted using purified mitochondrial fractions derived from HeLa cells expressing PHB2-FLAG, which had been prepared in Example 1.
In IP analysis, an immunoprecipitation method was performed using an anti-FLAG antibody, the precipitates were subjected to 12% SDS-PAGE, protein staining was performed, and then proteins that had been co-precipitated with the PHB2-FLAG protein were detected.

T1 sequence (O35129 whole entry, the tested form may be a part): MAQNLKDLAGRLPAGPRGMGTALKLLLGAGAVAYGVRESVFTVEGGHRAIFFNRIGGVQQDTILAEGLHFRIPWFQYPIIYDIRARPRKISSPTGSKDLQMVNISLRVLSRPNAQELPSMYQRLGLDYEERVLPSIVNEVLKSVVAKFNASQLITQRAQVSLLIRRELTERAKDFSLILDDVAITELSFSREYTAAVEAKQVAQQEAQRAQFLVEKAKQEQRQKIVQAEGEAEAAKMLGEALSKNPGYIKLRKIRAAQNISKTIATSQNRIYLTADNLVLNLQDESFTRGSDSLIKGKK

B1: PHB1 protein (other, human, UniProt P35232 2-272, looked up)
chain: AAKVFESIGKFGLALAVAGGVVNSALYNVDAGHRAVIFDRFRGVQDIVVGEGTHFLIPWVQKPIIFDCRSRPRNVPVITGSKDLQNVNITLRILFRPVASQLPRIFTSIGEDYDERVLPSITTEILKSVVARFDAGELITQRELVSRQVSDDLTERAATFGLILDDVSLTHLTFGKEFTEAVEAKQVAQQEAERARFVVEKAEQQKKAAIISAEGDSKAAELIANSLATAGDGLIELRKLEAAEDIAYQLSRSRNITYLPAGQSVLLQLPQ
notes: Endogenous protein co-precipitated from HeLa mitochondrial fractions; also called prohibitin
binding result: binds
